# T1: ULBP4-Fc (UniProt Q8TD07 31-225)
# T1 construct: Bought, R&D Systems; not shown: Fc part of the bought reagent
# T1 sequence (looked up): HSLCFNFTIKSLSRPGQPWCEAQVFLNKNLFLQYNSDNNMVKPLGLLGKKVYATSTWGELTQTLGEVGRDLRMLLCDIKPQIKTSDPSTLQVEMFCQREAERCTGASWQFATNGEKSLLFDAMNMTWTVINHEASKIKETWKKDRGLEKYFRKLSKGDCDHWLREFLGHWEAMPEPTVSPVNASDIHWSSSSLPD
# T2: ULBP1-Fc (UniProt Q9BZM6 26-216)
# T2 construct: Bought, R&D Systems; not shown: Fc part of the bought reagent
# T2 sequence (looked up): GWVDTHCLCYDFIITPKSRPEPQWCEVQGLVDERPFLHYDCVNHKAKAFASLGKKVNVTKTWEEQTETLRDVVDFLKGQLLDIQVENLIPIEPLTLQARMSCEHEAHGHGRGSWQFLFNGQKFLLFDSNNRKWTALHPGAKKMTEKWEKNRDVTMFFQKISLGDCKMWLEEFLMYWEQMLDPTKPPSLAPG
# T3: ULBP2-Fc (UniProt Q9BZM5 26-217)
# T3 construct: Bought, R&D Systems; not shown: Fc part of the bought reagent
# T3 sequence (looked up): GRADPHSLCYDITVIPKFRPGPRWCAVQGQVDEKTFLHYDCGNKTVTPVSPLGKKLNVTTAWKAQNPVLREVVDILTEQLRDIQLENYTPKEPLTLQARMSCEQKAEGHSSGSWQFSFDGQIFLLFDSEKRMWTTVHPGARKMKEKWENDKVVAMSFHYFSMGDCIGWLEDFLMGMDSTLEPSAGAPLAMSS
# T4: ULBP3-Fc (UniProt Q9BZM4 30-217)
# T4 construct: Bought, R&D Systems; not shown: Fc part of the bought reagent
# T4 sequence (looked up): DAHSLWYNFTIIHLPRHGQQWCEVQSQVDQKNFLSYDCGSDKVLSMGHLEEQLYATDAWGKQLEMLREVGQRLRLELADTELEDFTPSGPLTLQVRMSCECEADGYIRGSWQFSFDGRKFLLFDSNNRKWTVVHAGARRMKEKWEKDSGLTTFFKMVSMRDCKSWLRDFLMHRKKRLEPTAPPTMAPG
# T5: MICB-Fc (UniProt Q29980 23-298)
# T5 construct: Bought, R&D Systems; not shown: Fc part of the bought reagent
# T5 sequence (looked up): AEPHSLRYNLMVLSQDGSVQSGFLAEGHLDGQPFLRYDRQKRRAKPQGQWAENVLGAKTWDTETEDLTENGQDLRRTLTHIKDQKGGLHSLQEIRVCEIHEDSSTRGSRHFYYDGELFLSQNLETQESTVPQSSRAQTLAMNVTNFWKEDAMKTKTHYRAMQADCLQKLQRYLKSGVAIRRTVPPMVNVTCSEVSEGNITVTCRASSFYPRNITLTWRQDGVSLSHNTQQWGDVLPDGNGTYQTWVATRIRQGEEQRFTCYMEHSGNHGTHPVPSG
# T6: MICA-Fc
# T6 construct: also called natural α1-α2-α3-Fc fusion
# T6 chain: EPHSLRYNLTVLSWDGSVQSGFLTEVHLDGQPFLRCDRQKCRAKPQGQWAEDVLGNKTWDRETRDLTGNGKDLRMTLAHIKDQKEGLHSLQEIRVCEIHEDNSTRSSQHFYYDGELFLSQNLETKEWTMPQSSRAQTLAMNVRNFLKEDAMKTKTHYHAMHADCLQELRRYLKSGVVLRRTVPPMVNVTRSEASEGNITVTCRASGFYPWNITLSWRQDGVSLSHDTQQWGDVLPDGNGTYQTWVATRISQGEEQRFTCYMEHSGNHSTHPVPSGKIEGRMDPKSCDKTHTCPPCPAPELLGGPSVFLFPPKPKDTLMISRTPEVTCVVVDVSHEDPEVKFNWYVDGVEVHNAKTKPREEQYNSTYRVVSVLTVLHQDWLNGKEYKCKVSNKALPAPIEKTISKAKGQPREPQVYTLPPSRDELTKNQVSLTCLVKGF
# T7: biotinylated human NKG2D (Example 3) (human, UniProt P26718 78-216, limits assumed, biotinylated (site not stated))
# T7 construct: also called recombinant biotinylated NKG2D; surface coated biotinylated human NKG2D
# T7 sequence (looked up): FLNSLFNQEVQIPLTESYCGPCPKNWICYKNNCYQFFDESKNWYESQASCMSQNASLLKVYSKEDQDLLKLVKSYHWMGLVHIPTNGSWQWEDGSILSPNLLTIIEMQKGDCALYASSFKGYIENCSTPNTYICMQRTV
# B1: human NKG2D-Fc (Fc fusion)
# chain: FLNSLFNQEVQIPLTESYCGPCPKNWICYKNNCYQFFDESKNWYESQASCMSQNASLLKVYSKEDQDLLKLVKSYHWMGLVHIPTNGSWQWEDGSILSPNLLTIIEMQKGDCALYASSFKGYIENCSTPNTYICMQRTV
# notes: also called natural NKG2D-Fc; not shown: Fc part
# What was measured:
# ULBP4-Fc [1] = biological target: T1, ULBP4-Fc; experiment: plate ELISA: biotinylated natural NKG2D ectodomain titrated on coated ligand-Fc
# ULBP1-Fc [2] = biological target: T2, ULBP1-Fc; experiment: ELISA: ligand-Fc coated at 2 ug/ml, biotinylated NKG2D ectodomain titrated, streptavidin-HRP
# ULBP2-Fc [3] = biological target: T3, ULBP2-Fc; experiment: as above
# MICwed-Fc [4] = experiment: as above
# ULBP3-Fc [5] = biological target: T4, ULBP3-Fc; experiment: as above
# MICB-Fc [6] = biological target: T5, MICB-Fc; experiment: as above
# MICv25-Fc = biological target: T8, MICv25-Fc; experiment: ELISA: ligand-Fc coated at 2 ug/ml, biotinylated NKG2D Y199A ectodomain titrated, streptavidin-HRP
# T8 construct: also called MIC-v25 α1-α2 domain ligand
# ULBP4-Fc [7] = biological target: T1, ULBP4-Fc; experiment: as above
# ULBP1-Fc [8] = biological target: T2, ULBP1-Fc; experiment: as above
# ULBP2-Fc [9] = biological target: T3, ULBP2-Fc; experiment: as above
# MICwed-Fc [10] = experiment: as above
# ULBP3-Fc [11] = biological target: T4, ULBP3-Fc; experiment: as above
# MICB-Fc [12] = biological target: T5, MICB-Fc; experiment: as above
# MICA-Fc [13] = biological target: T6, MICA-Fc; experiment: as above
# ULBP4-Fc [14] = biological target: T1, ULBP4-Fc; experiment: ELISA: ligand-Fc coated at 2 ug/ml, biotinylated NKG2D Y152A ectodomain titrated, streptavidin-HRP
# ULBP1-Fc [15] = biological target: T2, ULBP1-Fc; experiment: as above
# ULBP2-Fc [16] = biological target: T3, ULBP2-Fc; experiment: as above
# MICwed-Fc [17] = experiment: as above
# ULBP3-Fc [18] = biological target: T4, ULBP3-Fc; experiment: as above
# MICB-Fc [19] = biological target: T5, MICB-Fc; experiment: as above
# MICA-Fc [20] = biological target: T6, MICA-Fc; experiment: as above
# OMCP-α3-iFv.2 = biological target: T9, OMCP-α3-iFv.2; experiment: ELISA: protein captured on FGFR3 detected with NKG2D-Fc
# T9 construct: also called NKG2DL-α3-iFv.2 (OMCP)
# human NKG2D-Fc = biological target: B1; experiment: competition ELISA: inhibits 2 nM human NKG2D-Fc binding to plate-coated WT sMICA
# [21] = biological target: T7, biotinylated human NKG2D (Example 3); experiment: biolayer interferometry (Octet), Kd = kOFF/kON
# [22] = biological target: T7, biotinylated human NKG2D (Example 3); experiment: biolayer interferometry (Octet), biotinylated human NKG2D on the surface, 100 nM analyte
binder,measurement,setting,value
"His-avitag-natural NKG2D (receptor, biotin on the avitag sequence (BirA), also called natural NKG2D ectodomain; wild type NKG2D) EPHHHHHHGLNDIFEAQKIEWHENSLFNQEVQIPLTESYCGPCPKNWICYKNNCYQFFDESKNWYESQASCMSQNASLLKVYSKEDQDLLKLVKSYHWMGLVHIPTNGSWQWEDGSILSPNLLTIIEMQKGDCALYASSFKGYIENCSTPNTYICMQRTV",binding result,ULBP4-Fc [1],binds
same,binding result,ULBP1-Fc [2],binds
same,binding result,ULBP2-Fc [3],binds
same,EC50 (read off the curve),MICwed-Fc [4],~100 nM
same,binding result,ULBP3-Fc [5],binds
same,binding result,MICB-Fc [6],binds
"Y199A NKG2D ectodomain (receptor, biotin on the avitag sequence (BirA), Expressed with His-avitag; also called non-natural NKG2D mutant Y199A) EPHHHHHHGLNDIFEAQKIEWHENSLFNQEVQIPLTESYCGPCPKNWICYKNNCYQFFDESKNWYESQASCMSQNASLLKVYSKEDQDLLKLVKSYHWMGLVHIPTNGSWQWEDGSILSPNLLTIIEMQKGDCALYASSFKGAIENCSTPNTYICMQRTV",binding result,MICv25-Fc,no binding (tested: 2000 nM)
same,binding result,ULBP4-Fc [7],no binding (tested: 2000 nM)
same,binding result,ULBP1-Fc [8],no binding (tested: 2000 nM)
same,binding result,ULBP2-Fc [9],no binding (tested: 2000 nM)
same,binding result,MICwed-Fc [10],no binding (tested: 2000 nM)
same,binding result,ULBP3-Fc [11],no binding (tested: 2000 nM)
same,binding result,MICB-Fc [12],no binding (tested: 2000 nM)
same,binding result,MICA-Fc [13],no binding (tested: 2000 nM)
"Y152A NKG2D ectodomain (receptor, biotin on the avitag sequence (BirA), Expressed with His-avitag; also called non-natural NKG2D mutant Y152A; Y152A mutant NKG2D ectodomain) EPHHHHHHGLNDIFEAQKIEWHENSLFNQEVQIPLTESYCGPCPKNWICYKNNCYQFFDESKNWYESQASCMSQNASLLKVYSKEDQDLLKLVKSAHWMGLVHIPTNGSWQWEDGSILSPNLLTIIEMQKGDCALYASSFKGYIENCSTPNTYICMQRTV",binding result,ULBP4-Fc [14],no binding (tested: 2000 nM)
same,binding result,ULBP1-Fc [15],no binding (tested: 2000 nM)
same,binding result,ULBP2-Fc [16],no binding (tested: 2000 nM)
same,binding result,MICwed-Fc [17],no binding (tested: 2000 nM)
same,binding result,ULBP3-Fc [18],no binding (tested: 2000 nM)
same,binding result,MICB-Fc [19],no binding (tested: 2000 nM)
same,binding result,MICA-Fc [20],no binding (tested: 2000 nM)
B1,binding result,OMCP-α3-iFv.2,binds
"WT α1-α2 soluble MICA protein (Example 3) (ligand, also called WT NKG2DL; WT MICA) EPHSLRYNLTVLSWDGSVQSGFLTEVHLDGQPFLRCDRQKCRAKPQGQWAEDVLGNKTWDRETRDLTGNGKDLRMTLAHIKDQKEGLHSLQEIRVCEIHEDNSTRSSQHFYYDGELFLSQNLETKEWTMPQSSRAQTLAMNVRNFLKEDAMKTKTHYHAMHADCLQELRRYLKSGVVLRRTVPPMVQVTRSEASGGSGDRVTITCRASQDVSTAVAWYQQKPGKAPKLLIYSASFLYSGVPSRFSGSGSGTDFTLTISSLQPEDFATYYCQQSYTTPPTFGQGTKVEIKGGSSRSSSSGGGGSGGGGEVQLVESGGGLVQPGGSLRLSCAASGFTFTSTGISWVRQAPGKGLEWVGRIYPTNGSTNYADSVKGRFTISADTSKNTAYLQMNSLRAEDTAVYYCARTYGIYDLYVDYTEYVMDYWGQGTLVTVSSGGSSRSSSSGGGGSGGGGDIQMTQSPSSLSASGGSGQITVTCRASGFYPWNITLSWRQDGVSLSHDTQQWGDVLPDGQGTYQTWVATRISQGEEQRFTCYMEHSGQHSTHPVPSGKGSHHHHHH",IC50,human NKG2D-Fc,19.4 nM
same,Kd,[21],13.8 nM
same,koff,[22],0.0018 s⁻¹
same,kon,[22],130000 M⁻¹ s⁻¹

# Reference: patent US20180134765A1 (AVIDBIOTICS, published 2018)
